Four proteins from article PMC6364133, “Selectivity of Dietary Phenolics for Inhibition of Human Monoamine Oxidases A and B” (BioMed Research International, 2019) can be followed below.

Common to all, as to type: biochemical, human
Substrate in data set [1]: NCCC(=O)c1ccccc1N
Description: Kynuramine oxidative deamination kinetics (saturation, optimization) with MAO-B. As to conditions: other: kynuramine 2-500 μM, 15 min, mean ± SEM; pH 7.4; 37.0 °C. The protocol: (§1) The optimized incubation time and human recombinant MAO concentration were selected in the linear range from the time-dependent and MAO concentration-dependent studies (Supplemental Data). Briefly, samples were prepared in potassium phosphate buffer (100 mM, pH 7.4) with a final concentration of MAO in the reaction solution of 0.01 mg/mL, incubated at 37°C for 15 min. Saturation of kynuramine metabolism with MAO-A/B was carried out at concentrations of 2, 5, 10, 25, 50, 100, 250, 500 μM. The enzymatic reactions (200μL) were stopped by 2 N NaOH (75 μL) followed with 70% perchloric acid (25 μL). The samples were vortexed and centrifuged for 5 min at 10,000×g. The supernatant was analyzed by HPLC as described above.
(§2) GraphPad Prism 5 was applied to fit a Michaelis-Menten model to the data to obtain the Km values in the saturation experiments. In the screening experiments, significant differences between control and treated group were determined by a one-way ANOVA followed by Dunnett's posttest (p < 0.05). […] The maximum single doses are from published sources. The relevant GI concentration is the lesser of either solubility or the concentration after a single dose. […]
(§3) Kynuramine (10 µM) was incubated with MAO-A (0.01 mg/mL) in 200 µL potassium phosphate buffer (100 mM, pH 7.4) for 10, 20, 30, 40, and 60 min. The formation of 4-hydroxyquinoline was analyzed after the enzymatic reaction. […]

Substrate in data set [2]: NCCC(=O)c1ccccc1N
Description: Inhibition mechanism studies (competition, time dependence) with MAO-B. The following applies: other: competition study control, kynuramine 2-450 μM.

Substrate in data set [3]: NCCC(=O)c1ccccc1N
Description: Kynuramine oxidative deamination kinetics (saturation, optimization) with MAO-A. The following applies: other: kynuramine 2-500 μM, 15 min, mean ± SEM; pH 7.4; 37.0 °C. The protocol:
as §1, §2, §3

Substrate in data set [4]: NCCC(=O)c1ccccc1N
Description: Inhibition mechanism studies (competition, time dependence) with MAO-A. The following applies: other: competition study control, kynuramine 2-450 μM.

Where “and” joins values, the source holds several entries; their conditions need not be identical. Equal values may be shown once.

B1: human recombinant MAO-B (Homo sapiens) (protein)
chain: MSNKCDVVVVGGGISGMAAAKLLHDSGLNVVVLEARDRVGGRTYTLRNQKVKYVDLGGSYVGPTQNRILRLAKELGLETYKVNEVERLIHHVKGKSYPFRGPFPPVWNPITYLDHNNFWRTMDDMGREIPSDAPWKAPLAEEWDNMTMKELLDKLCWTESAKQLATLFVNLCVTAETHEVSALWFLWYVKQCGGTTRIISTTNGGQERKFVGGSGQVSERIMDLLGDRVKLERPVIYIDQTRENVLVETLNHEMYEAKYVISAIPPTLGMKIHFNPPLPMMRNQMITRVPLGSVIKCIVYYKEPFWRKKDYCGTMIIDGEEAPVAYTLDDTKPEGNYAAIMGFILAHKARKLARLTKEERLKKLCELYAKVLGSLEALEPVHYEEKNWCEEQYSGGCYTTYFPPGILTQYGRVLRQPVDRIYFAGTETATHWSGYMEGAVEAGERAAREILHAMGKIPEDEIWQSEPESVDVPAQPITTTFLERHLPSVPGLLRLIGLTTIFSATALGFLAHKRGLLVRV
notes: purchased BD Biosciences (San Jose, CA) or Corning Discovery Labware (Woburn, MA)
Consider B1, for which, in data set [1], the Km turned out to be 18.0 ± 2.3 µM and the Vmax is 7.35 ± 0.69 nmol/min/mg.

B2: MAO-B (Homo sapiens) (protein)
chain: B1 chain
notes: as for B1
B2: in data set [2], the Km came out at 14.4 ± 1.2 µM and the Vmax turned out to be 3.44 ± 0.07 nmol/min/mg protein.

B3: human recombinant MAO-A (Homo sapiens) (protein)
chain: MENQEKASIAGHMFDVVVIGGGISGLSAAKLLTEYGVSVLVLEARDRVGGRTYTIRNEHVDYVDVGGAYVGPTQNRILRLSKELGIETYKVNVSERLVQYVKGKTYPFRGAFPPVWNPIAYLDYNNLWRTIDNMGKEIPTDAPWEAQHADKWDKMTMKELIDKICWTKTARRFAYLFVNINVTSEPHEVSALWFLWYVKQCGGTTRIFSVTNGGQERKFVGGSGQVSERIMDLLGDQVKLNHPVTHVDQSSDNIIIETLNHEHYECKYVINAIPPTLTAKIHFRPELPAERNQLIQRLPMGAVIKCMMYYKEAFWKKKDYCGCMIIEDEDAPISITLDDTKPDGSLPAIMGFILARKADRLAKLHKEIRKKKICELYAKVLGSQEALHPVHYEEKNWCEEQYSGGCYTAYFPPGIMTQYGRVIRQPVGRIFFAGTETATKWSGYMEGAVEAGERAAREVLNGLGKVTEKDIWVQEPESKDVPAVEITHTFWERNLPSVSGLLKIIGFSTSVTALGFVLYKYKLLPRS
notes: as for B1
Take B3: in data set [3], the Km is 23.1 ± 0.8 µM and 23 µM; the Vmax stood at 10.2 ± 0.2 nmol/min/mg.

B4: MAO-A (Homo sapiens) (protein)
chain: B3 chain
notes: as for B1
As to B4, in data set [4], the Michaelis-Menten constant (Km) amounted to 8.46 ± 1.56 µM and the Vmax turned out to be 17.4 ± 0.7 nmol/min/mg protein.

For orientation: Km means the concentration of substrate that gives half-maximal velocity.
